Source: the nanobody polyreactivity screen of Harvey et al. (2022)

Test: yeast display, Sf9 membrane polyspecificity reagent, FACS + sequencing; frameworks hold sequencing errors
Summary of the method: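 A synthetic nanobody library was expressed on Saccharomyces cerevisiae BJ5465 by galactose induction for 36–48 hours. The library was stained for 1 hour at 4 °C with 10% biotinylated, detergent-solubilized Sf9 membrane reagent and enriched with streptavidin microbeads before FACS. Low and high (top ~1%) gates were set on anti-HA fluorescence for expression and streptavidin fluorescence for reagent binding, and each polyreactivity label reflects the gate of origin.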

| Sequence | polyreactivity (PSR sort gate) |
| --- | --- |
| KVQLVESGGGLVQAGGTLRLSCAASGSTFTPYAMVWYRQAPGKERELVAAIWIGGNTYYADSVKGRFTISRDNAKNTVYLQMNSLKPEDTAVYYCATENVDPDHYYDWGYDYWGQGTQVTVSS | low polyreactivity |
| KVQLVESGGVLVQEGGRLRLSCAASGRTFQLNAMGWYRQAPGKEMELVAAISTRGGSTYYADSVKGRFTISRDNAKNSVYLQMNSLKPEDTAGYYCAKDPSFTRGYKEGGGYDYWGQGTQVTVSS | high polyreactivity |
| KVQLVESRGGLVQAGGSLRLSCAASGRTFIRYAMGWYRQAHGKEREFVAAITWSGGSTYYADSVKGRFTISRDNAKNTVYLQMNSLKPEDTAVYYCAKYPAARAVDYWGQGSQVTVSS | high polyreactivity |
| LLQLVESVGGLVQAGGTLRLSCAASRSTFHANTLGGYRKAPGKERELVAAISIRGANTYYADSVKGRLTISSDNAKNTVYLQMNSLKREDTAVYYCATRVRKYSLRLDYWGQGTQVTVSS | high polyreactivity |
| LVQLQESGGGLVQACGSLRLSCAASGDIFDADIMGWYRQAPGKERELVASITDGGSTNYADSVKGRFTISRDNAKNTVYLPMNSLKPEDTAVYYCAKPATYYELDYWGQGTQVTVSS | low polyreactivity |
| LVQLQESGGGLVQAGGSLRLSCAASGSIYKVVDMGLYRQAPAKEREFVATIGEGGNTYYADSVKGRFTISRDNAKNTVYLQMNSLKPEDTAVYYCNDDIGVYAYESDYWGQGTQVTVSS | low polyreactivity |
| LVQLQESGGGLVQAGGSLRLSCAASGTISPGGYMGWYRQAPGKERELVASMNVGGSTNYADSVKGRFTISRDNAIITVYLQMNSLKPEDNAVYYCAVWGRNRLQLSYWGQGTQVTVSS | low polyreactivity |
| LVQLVESGGGLVQAGGSLRLICAASGITISYNAMGWYRQAPGKERELVAAITGSDGITYYADSVKGRFTISRDNAKNTVYLEMNSLKPEDTAVYYCAAEWWDYWYEYDYWGQGTQVTVSS | high polyreactivity |
| LVQLVESGGGLVQAGGSLRLSCAASGFTFGRNAMGWYRQSPGKEREFVADISGSVGSTYYADSVKGRFTISRDNAKNSVYLQMNRLIPEDTAVYYCAADTLYPRWEFDYWGQGTQVTVSS | high polyreactivity |
| LVQLVESGGGLVQAVGSLRLSCAASGFTIYGNAMGWYRRAPGKERELVAAITWRGGSTYYADSEKGRFTISRDNAKNTVYLQMNSLKPEDTAVYYCNALKGRPVRSYLASPSYRYDYWGQGTQVTVSS | high polyreactivity |
| PVQIVESGGGLVQAGGSLRLSCAASGFTFYSNAMGWYRQAPGKEWEMVAAISFSGTRTYYADSVKGRFTISRDNEKNTVYLQMNSLKPEDTAVYYCNAVAYNYPRTYDYWGQGTQVTVSS | high polyreactivity |
| PVQLVDSGGGLVQAGGSLRLSCAASGRIFYGYALGWYRQAPGKERDLDAAIDWSGGSTYADSVTGRFTISRDNAKNTVYLPMHSLKPEDTAVYYCATDWVTSQQPYYWIYEYWGQGTQVTVSS | low polyreactivity |
| PVQLVDSGGGLVQAGGSLRLSCAASGSTFQRNVMGWYRQAPGKERELVAAITWRGTSTYYADSVKGRFTISRDNAKNTVYLQMNSLKPEDTAVYYCAAERTRSGYYYDYWGQGTQVTVSS | high polyreactivity |
| PVQLVESGGGFVQAGGSLRLSCAASGFTFYVNAMGWYRQAPGKERELVAAISGSGGSTYYADSVKGRFTISRDNAKNTVYLQMNSLKPEDTAGYYCAADAYNPPYWDDPYDYWGQGTQVTVSS | high polyreactivity |
| PVQLVESGGGLVQAGGSLRLICAASGRIFEINAMGWYRQAPGKERELFAAITRGGRTYYADSVKGRFTSSRDNAMNTVYLQMTSLKPEDTAVYYCAAYGHIRSGFDCVDYWGQGTQVTVSS | high polyreactivity |
| PVQLVESGGGLVQAGGSLRLSCAASGFIFSWYAMGWYRPAPGKDRELVAAISRSGGSTYADSVKGRFTIARDNAKNTVYLQMNSLKPEDTAVYYCAAGSYWSYWDSRYDYWGQGTQVTVSS | low polyreactivity |
| PVQLVESGGGLVQAGGSLRLSCAASGSIFASYAMGWYREAPGKERELVAAISSSSGSTYYADSVKGRFTISRDNAKNTVYLQMTSLKPEDTAVYYCAAESGRRIKYWRGYYYWGQGTQVTVSS | low polyreactivity |
| PVQLVESGGGLVQAGGSLRLSCAASGSNFEYYTMGWYRQAPGKERELVATISRSADRTYYADSVKGRFTISRDYAKNTVYLQMNILKPEDTAVYDCAKLYPRTTQWIYDYWGQGTQVTVSS | high polyreactivity |
| PVQLVESGGGVVQAGGSLRLSCAASGSIFDENAKGWNRQAPGKERELVAAISSGGSTNYADSVKGRFTITRDNAKNTVYLQMNSLKPEDTAVYYCNNKSRRQYDYWGQGTQVTVSS | low polyreactivity |
| PVQLVESGGVLVQAGGSLRLSCAASGRTFSYYAMGWYRQAPGKERELVADNNCSGTSTDYADSVKGRFTISRDNAKNTVYLQMHSLKPEDTEVYYCPAYLIVYYGDETPYASLHDYWGQGTQVSVSS | low polyreactivity |
| PVQLVESGGVLVQAGGSLRVSCAASGSILLIYSMGWSIQAPGKERELVAGINWSGSRAYYADSVKGRFTISRDNAQNTVYLQMNSLKPEDTAVYYCAARGRRPLYSAYDSWGQGTQVTVSS | low polyreactivity |
| QAELVESGGGLVQAGGSLRLSSAASGIIFDVYAMGWYRQAPGKERELVASIRWRGGSTYYADSVKGRFTISRDNAKNTVFLQMNSLKPEDTAVYYCAADLTRWYGRTYNYWGQGTQVTVSS | high polyreactivity |

| Sequence | polyreactivity (PSR sort gate) |
| --- | --- |
| QAQLVESGGGLVQAGGSLRLSCAASGSIMYYAMGWYRHAPWKERELVATITRGGSTYYADSVKGRFTISRDNAKNTVYLQMNSLKPEDTAVYYCAKQFLPSGVYYEYDSWGQGTQVTVSS | low polyreactivity |
| QCQREESGGGLVQAGGRLRLSCAASGLILIYYAMGWYRQAPGKERELVAAITSSGGSTYYADSVKGRFTISRDNAKNTVYLQMNSLKREDTAVYYCAAYYSGDGYYWGQGTQVTVSS | high polyreactivity |
| QDALVESCGGLVQAGGSLRLICAASGSTFDTYALGWYRQAPAKEWELVAGISWSGGSTFFADSVKGRFTISRDNAKNTVSLQMNSLKPEDTAVYDCAKQLWVGVKYDYWGQGPQVTVSS | low polyreactivity |
| QDDLVESGGGLVQAGGSLRFRGAASGYTFEKYAMGWKRQAPGKERELFASISWSGGRTRYADSVKGRFTISRDNAKNTDSLQMNSLQPEDTAVDYCAARGAYKSGYNRNEYWGQGTQVTVSS | high polyreactivity |
| QDELVESGGGLVQAGGSLRLSCAASGRIFPFYAMGWNRQAPGKERDFVAAITYSGGNTNYADSVKGRFTISRDNAKNTVYLQMNSLKPEDTAVYYCAAVLGYGDYYQEDYWGQGTQVTVSS | low polyreactivity |
| QDHLVESGGCLVQAGGTLRLSCAASGFTIGNYAMAWYRQPPGKERELVAAISWSGGSTYYADSVKGRFTISRDNAKNTVYLQMNSLNPEVTAVYYCNPKRGSLWESDYWGQGSQVTVSS | high polyreactivity |
| QDHLVESGGGLVQAGGSLRLSCAASGRIFSYYVMGWYRQAPGKERELVAAITSGCSTNYADSVKGRFTISRDNAKNNVYLQMNSLKPEDTAVYYFNRAYTYINRLYGYWGQGTQVTVSS | high polyreactivity |
| QDKLVESGGGLVQEGGRLRLSCAASGRIFGNYAMGWYRQAPGKERELVAAIDLSGDSTYYADSVKGRFTISRDNAKYTVYLQMKSLKPEDTAVYYCAATDWFSEYYWGQGTQETVSS | low polyreactivity |
| QDLLVESGGGLVQAGGSLRLRCAASGITFAFYTMGWYRQAPGKPSELVTAISYSGGRTYNADSVKGRFTISRDNAKYTVYVQMLSLKPEDTAVYYCNTRYRGSYDYWGQGTQVTVSS | high polyreactivity |
| QDLLVESGGGLVQAGGSLRLSCAASGRTFWDYTMGWYRQAPGKDRELVASITRTCRTNYADSVKGRFTISRDNAKNTVYLQMNSLKTEDTAVYYCAAEVGYQGWYPSGYKFDYWGQGTQVTVSS | high polyreactivity |
| QDQHVESGGCLVQAGGSLRLSCAASGRTFVRNTMGWYRQAPGKEREFVAAISRSGGNTHYADSVKGRFTISRDNAKNTVYLQMNSLKPEDTAVYYCATRAGYEVYPNKMNYWGQGTQVTVSS | high polyreactivity |
| QDQHVESGGGIVQAGGSLRLICAASGRTFANNAMGWYRQAPGKERELVAAISWSGGSTYYADSVKGRFTISRDNAKNTVYLQMNSLKPEDTAVYYCAADSPRYGGYGYWGQGTHVTVSS | low polyreactivity |
| QDQHVESGGGLVQAGGSLPLSCADSGSIFPRNAMGWYRQAPGKERELVAAISRIGGSTYYADAVKGRFTISRDNAKNTVYLQMNSLKPEDTAVYYCAAPPSEWQHDYWGQGTQVTVSS | low polyreactivity |
| QDQHVESGGGLVQAGGSLRLICAASGNTFGWYAMGWYRQAPGKEREFVADISWSGGSTYYADSVKGRFTISRDNAKNTVYLQMNSLKQEDTAVYYCNAVWLYYWHADQYFEYDYWGQGTQVTVSS | high polyreactivity |
| QDQHVESGGGLVQAGGSLRLICAASGSIIQVYAIGWYRQAPGKEREFVASITRTGGSTKYADSVKGRFTISRDNAKNTVYLQMNSLKPEDTAFFYCNAVPRSWSPYRHWFDYWGQGTQVTVSS | low polyreactivity |
| QDQHVESGGGLVQAGGSLRLSCAASARIFVPYAMGWYRQAPGQERELVAAFSWRGGSTNYADSVKGRFTISRDNAKNTVYLQLNSLIPEDTAVYYCAAVPVRYRYSYGYYYWGQGTQVSVSS | high polyreactivity |
| QDQHVESGGGLVQAGGSLRLSCAASGITSKNYAMGWSRQAPGKERELVAVISGRGGSTYYADSVKGRFTITRDNAKNTVYLQMNCLKPEDTAVYYCAAYGNQRRGAYPYKYDYWGQGTQVTVSS | high polyreactivity |
| QDQHVESGGGLVQAGGSLRLSCAASGLTFAVYTMGWYRPAAGKERELVAAITWDGGITYYADSVKGRFTISRDNAKNTVYLQMNSLKPEDTAVYYCAADSREVSTTAYYYWGQGTQVTLSS | low polyreactivity |
| QDQHVESGGGLVQAGGSLRLSCAASGLTFHRYAMGWSRQAPGKERELVAAINYSGGRTYYADSVKGRFTISRDNAKNTVYLLMNSLKPEDTAVYYCAGYDYWGQGTQVTVSS | high polyreactivity |
| QDQHVESGGGLVQAGGSLRLSCAASGRTFAGYAMGWYRQAPGKERELVATISGRGGSTSYADSVKGRFTISRDNAKNTVYLQMNSLIPEDTAVYYCAKASWYKYKYDYWGQGTQVTVSS | high polyreactivity |
| QDQHVESGGGLVQAGGSLRLSCAASGRTFYQYAMGWYRQAPGKERELVAVINGGGSTNYADSVKGRFTISRDNAKNTVYLQMNSLKPEDTAVYYCNAGSVSDRQMDYWGQGTQVTVSS | low polyreactivity |
